Measured values from patent US20260266828A1, “BIOMARKERS FOR PREDICTING CANCER TREATMENT EFFICACY” (Arcus Biosciences, Inc., priority 2023, published 2026).

Tested on: metastatic (Stage IV) squamous or non-squamous NSCLC
Assay: PFS in serum cytokine selected subsets of the trial of Example 2
Assay type: in vivo, human
Settings: median
Protocol: Soluble biomarkers were retrospectively analyzed in baseline and on-treatment peripheral blood derived samples obtained from a subset of subjects enrolled in the clinical trial of Example 2. Baseline samples were obtained on day 1 of cycle 1 (CID1), prior to administration of any study drugs. On-treatment samples were obtained on day 1 of cycle 2 (C2D1), prior to administration of study drugs on that day.
Blood collected in serum separator tubes was allowed to clot for 30-60 minutes before centrifugation at 1300 g for 10 minutes to separate the serum. Serum was isolated and stored at −80° C. until cytokine analysis. Serum cytokines were quantified in multiplex assays using the Meso Scale Discovery platform following the manufacturer's protocol. Briefly, plates were coated with biotinylated capture antibodies specific to the analyte of interest bound to linkers specific to unique spots in each well of a 96-well plate. Serum samples, assessed in duplicate, were diluted 8-fold to quantify CXCL9, CXCL10, CXCL11 and IL-18 in a U-plex assay, diluted 10-fold to quantify IL-12B in a U-plex assay, and diluted 5-fold to quantify IFNγ, TNFα and IL-6 in the S-plex assay. Samples were incubated on linker/capture antibody-coated plates, followed by detection with a sulfo-tag-labelled antibody for the U-plex assays and a TURBO-tag-labelled antibody for the S-plex assay. For the S-plex assay, additional steps incorporated in the manufacturer's protocol to amplify signal with enhance solution and detection solution were followed. Following addition of read buffer, the electrochemiluminescent signal was measured on a MESO Sector S 600 instrument. Between each step of the protocol plates were washed with 0.05% Tween-PBS. A standard curve was generated for each plate using a 4-parameter logistic fit with 1/y^2 weighting. Cytokine concentrations in samples were interpolated using the standard curve, allowing quantification of the analyte of interest. Fold change from baseline was calculated as a ratio of the cytokine concentration at C2D1 over the cytokine concentration at baseline. A linear mixed model performed on log transformed raw cytokine values with baseline values as covariates assessed the difference in cytokine levels over time and between treatment groups.
Kaplan-Meier survival plots using progression-free survival data and cytokine concentrations were generated in the Jmp software, and hazard ratios were calculated between patient groups of interest. Comparisons were made for each analyte between zimberelimab monotherapy and domvanalimab combination groups both at baseline and using the fold change at C2D1 using median values to stratify patients in to low and high cytokine groups. Stratifying subjects by baseline cytokine expression (e.g., CXCL9, CXCL10, CXCL11, LL-6, TNFα) around the median value (high vs. low) enriched for clinical benefit with the addition of domvanalimab. Baseline reference values derived from the biomarker evaluable population (BEP) are as follows (high is ≥reference value, and low is <reference value): CXCL9: 278.7 pg/mL; CXCL10: 445.4 pg/mL; CXCL11:104.2 pg/mL; L-6: 15550 fg/mL; TNFα: 1194 fg/mL. Induction reference values derived from the BEP are as follows (high is ≥reference value, and low is <reference value): CXCL9: 1.76 fold change; CXCL10: 1.52 fold change; […]: 1.14 fold change IL-18: 1.1 fold change; IFNγ: 1.23 fold change.

B1: zimberelimab (antibody, chains of the INN, looked up, V domains shown)
VH: QLQLQESGPGLVKPSETLTLTCTVSADSISSTTYYWVWIRQPPGKGLEWIGSISYSGSTYYNPSLKSRVTVSVDTSKNQFSLKLNSVAATDTALYYCARHLGYNGRYLPFDYWGQGTLVTVSS
VL: QSALTQPASVSGSPGQSITISCTGTSSDVGFYNYVSWYQQHPGKAPELMIYDVSNRPSGVSDRFSGSKSGNTASLTISGLQAEDEADYYCSSYTSISTWVFGGGTKLTVL
notes: zimberelimab monotherapy 360 mg IV Q3W; anti-PD-1 antibody
BEP (fold change from baseline to C2D1)
  PFS: 5.7 mo
BEP for cytokine analysis (baseline samples)
  PFS: 5.6 mo
CXCL9 High Induction at C2D1 (≥1.76 fold change)
  PFS: 2.7 mo
CXCL9 High at Baseline (≥278.7 pg/mL)
  PFS: 4 mo
CXCL9 Low Induction at C2D1 (<1.76 fold change)
  PFS: 9.7 mo
CXCL9 Low at Baseline (<278.7 pg/mL)
  PFS: 7.6 mo
CXCL10 High Induction at C2D1 (≥1.52 fold change)
  PFS: 2.7 mo
CXCL10 High at Baseline (≥445.4 pg/mL)
  PFS: 5.4 mo
CXCL10 Low Induction at C2D1 (<1.52 fold change)
  PFS: 11.7 mo
CXCL10 Low at Baseline (<445.4 pg/mL)
  PFS: 7.6 mo
CXCL11 High at Baseline (≥104.2 pg/mL)
  PFS: 4.9 mo
CXCL11 Low at Baseline (<104.2 pg/mL)
  PFS: 5.6 mo
IFNγ High Induction at C2D1 (≥1.23 fold change)
  PFS: 4.5 mo
IFNγ Low Induction at C2D1 (<1.23 fold change)
  PFS: 11.7 mo
IL-6 High at Baseline (≥15550 fg/mL)
  PFS: 1.8 mo
IL-6 Low at Baseline (<15550 fg/mL)
  PFS: 9.6 mo
IL-12B High Induction at C2D1 (≥1.14 fold change)
  PFS: 9.6 mo
IL-12B Low Induction at C2D1 (<1.14 fold change)
  PFS: 2.5 mo
IL-18 High Induction at C2D1 (≥1.1 fold change)
  PFS: 5.7 mo
IL-18 Low Induction at C2D1 (<1.1 fold change)
  PFS: 4.5 mo
TNFα High at Baseline (≥1194 fg/mL)
  PFS: 3.5 mo
TNFα Low at Baseline (<1194 fg/mL)
  PFS: 5.7 mo
